For the data set, the target named is Pol gamma A R853A exo-;Pol gamma B deltaI4 (human;human?, UniProt P54098;Q9UHN1 1-1239;1-485, D198A;E200A;R853A|del136-182). The data set is described as follows: X-ray crystal structure (3.4 A); dCTP (2 mM), 10 mM CaCl2; ternary complex, dCTP not paired with template dG; Crystal: 63.5 uM protein, 114.3 uM DNA, 10 mM CaCl2, 2 mM dCTP; well 100 mM MES pH 6.0, 150 mM NaCl, 10 mM CaCl2, 50 mM BME, 3% PEG-8000, 1-8% sucrose, 2% Jeffa. Conditions: protein: recombinant;recombinant; (Ni-NTA purified); copies: 1;2; 5' overhang 4 nt (template strand), recessed primer 3' end.

Experimental findings from PMC11122685, “An interaction network in the polymerase active site is a prerequisite for Watson-Crick base pairing in Pol γ” are described below.

Chain of Pol gamma A R853A exo-;Pol gamma B deltaI4 (P54098 whole entry D198A/E200A/R853A, chain 1 of 2): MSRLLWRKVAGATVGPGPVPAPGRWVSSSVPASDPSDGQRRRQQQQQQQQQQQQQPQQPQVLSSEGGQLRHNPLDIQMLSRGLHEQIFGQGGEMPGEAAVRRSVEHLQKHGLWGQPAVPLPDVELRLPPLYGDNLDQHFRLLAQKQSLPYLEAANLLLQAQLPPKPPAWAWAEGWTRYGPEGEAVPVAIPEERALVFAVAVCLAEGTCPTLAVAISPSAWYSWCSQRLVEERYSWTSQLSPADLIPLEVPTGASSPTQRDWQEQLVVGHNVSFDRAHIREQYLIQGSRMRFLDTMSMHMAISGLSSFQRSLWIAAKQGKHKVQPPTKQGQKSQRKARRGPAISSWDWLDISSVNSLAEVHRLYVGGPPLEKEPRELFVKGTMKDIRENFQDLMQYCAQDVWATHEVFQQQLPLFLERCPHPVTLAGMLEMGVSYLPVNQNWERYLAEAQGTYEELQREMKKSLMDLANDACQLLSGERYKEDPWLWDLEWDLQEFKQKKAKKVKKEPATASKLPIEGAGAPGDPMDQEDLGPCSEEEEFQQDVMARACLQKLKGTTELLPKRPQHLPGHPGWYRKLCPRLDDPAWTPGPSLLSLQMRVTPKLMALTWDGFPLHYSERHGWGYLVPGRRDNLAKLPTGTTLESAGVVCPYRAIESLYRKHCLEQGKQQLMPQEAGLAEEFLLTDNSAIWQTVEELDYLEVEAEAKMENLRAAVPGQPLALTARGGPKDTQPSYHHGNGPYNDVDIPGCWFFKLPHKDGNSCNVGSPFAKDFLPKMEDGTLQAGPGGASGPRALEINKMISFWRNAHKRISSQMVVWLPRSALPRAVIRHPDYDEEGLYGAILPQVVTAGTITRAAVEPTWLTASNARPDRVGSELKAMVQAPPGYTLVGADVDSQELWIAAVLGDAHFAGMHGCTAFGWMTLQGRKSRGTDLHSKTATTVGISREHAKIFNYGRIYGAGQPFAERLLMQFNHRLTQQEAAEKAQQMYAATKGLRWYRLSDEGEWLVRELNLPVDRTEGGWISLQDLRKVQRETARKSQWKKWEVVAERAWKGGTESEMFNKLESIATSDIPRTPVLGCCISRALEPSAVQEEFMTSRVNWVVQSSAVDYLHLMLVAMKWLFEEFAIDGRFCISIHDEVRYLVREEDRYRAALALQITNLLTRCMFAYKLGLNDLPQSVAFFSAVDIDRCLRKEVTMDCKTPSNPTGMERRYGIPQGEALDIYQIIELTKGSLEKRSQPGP
Chain of Pol gamma A R853A exo-;Pol gamma B deltaI4 (Q9UHN1 other isoform, or with tags, fused parts or gaps D198A;E200A;R853A|del136-182 | R853A R853A, chain 2 of 2): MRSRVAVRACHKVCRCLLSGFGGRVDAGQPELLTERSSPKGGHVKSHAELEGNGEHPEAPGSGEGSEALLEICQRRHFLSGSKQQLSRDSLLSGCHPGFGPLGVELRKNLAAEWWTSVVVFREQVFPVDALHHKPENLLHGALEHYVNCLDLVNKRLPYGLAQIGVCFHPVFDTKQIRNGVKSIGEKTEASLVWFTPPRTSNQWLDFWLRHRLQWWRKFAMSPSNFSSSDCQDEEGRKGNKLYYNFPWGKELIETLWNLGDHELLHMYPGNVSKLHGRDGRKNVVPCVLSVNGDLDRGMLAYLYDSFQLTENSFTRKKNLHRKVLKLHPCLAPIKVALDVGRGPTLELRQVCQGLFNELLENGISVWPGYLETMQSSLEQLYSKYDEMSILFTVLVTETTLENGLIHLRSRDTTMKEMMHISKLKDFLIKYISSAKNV

B1: 24-nt/28-nt primer/template, ddC-terminated primer (crystal) (dsDNA)
DNA 1: CGAAAACGACGGCCAGTGCCATAC
DNA 2: CGAGGTATGGCACTGGCCGTCGTTTTCG
modifications: 2',3'-dideoxyC at primer 3' end (position 24 of strand 1)
Take B1: the binding result is given as “binds”.
